Key:
[1] = target: T1, CD133 on PLC/PRF/5 cells (human) (UniProt O43490); assay: flow cytometry (cell binding); conditions: PLC/PRF/5 cells, 37 C, Aptamer folded in PBS with 2.5 mM Mg2+ (85 C 5 min, RT, 37 C 15 min), binding to cells in PBS-based blocking buffer, 30 min, CD133-negative HEK293T cells …
T1 sequence: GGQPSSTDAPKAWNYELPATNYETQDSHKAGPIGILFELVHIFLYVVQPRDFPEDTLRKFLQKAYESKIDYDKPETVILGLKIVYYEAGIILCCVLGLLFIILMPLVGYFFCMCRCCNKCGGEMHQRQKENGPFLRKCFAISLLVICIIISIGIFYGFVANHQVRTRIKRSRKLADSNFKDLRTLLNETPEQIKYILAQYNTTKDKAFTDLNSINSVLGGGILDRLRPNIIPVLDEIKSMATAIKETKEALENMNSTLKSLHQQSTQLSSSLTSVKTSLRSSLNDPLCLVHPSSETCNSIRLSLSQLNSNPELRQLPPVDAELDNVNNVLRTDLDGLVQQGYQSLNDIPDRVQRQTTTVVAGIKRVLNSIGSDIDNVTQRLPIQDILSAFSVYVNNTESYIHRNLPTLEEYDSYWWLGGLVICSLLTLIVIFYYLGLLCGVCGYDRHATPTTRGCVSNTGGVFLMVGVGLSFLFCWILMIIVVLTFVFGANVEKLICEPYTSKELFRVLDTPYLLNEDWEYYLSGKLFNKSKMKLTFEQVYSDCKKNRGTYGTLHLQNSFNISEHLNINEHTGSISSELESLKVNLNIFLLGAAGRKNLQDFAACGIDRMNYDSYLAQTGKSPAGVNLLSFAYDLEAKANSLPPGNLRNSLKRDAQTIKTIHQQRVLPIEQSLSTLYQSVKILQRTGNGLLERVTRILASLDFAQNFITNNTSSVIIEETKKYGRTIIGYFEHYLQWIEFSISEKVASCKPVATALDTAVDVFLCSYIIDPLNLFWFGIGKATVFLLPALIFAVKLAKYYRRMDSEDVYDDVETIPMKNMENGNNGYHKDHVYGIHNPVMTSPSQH

[2] = target: T2, CD133 on Huh7 cells (human) (UniProt O43490); assay: flow cytometry (cell binding); conditions: Huh7 cells, 37 C, Aptamer folded in PBS with 2.5 mM Mg2+ (85 C 5 min, RT, 37 C 15 min), binding to cells in PBS-based blocking buffer, 30 min, CD133-negative HEK293T cells …
T2 sequence: T1 sequence

[3] = test system: CD133 aptamer (hybrid RNA-DNA, 10-bp DNA GC stem) (DNA:RNA, aptamer, 2'-fluoro on all pyrimidines (C and U) of the RNA part; 5-methyl-dC (printed 5'-methyl-dC) in the DNA stem) CGCGCGCCGCUCCUACAUAGCGGCGCGCG; assay: DOX fluorescence quenching; conditions: DOX 10 µM, aptamer 1-10 µM, 30 min; >90% quenching at aptamer:DOX 0.27
[4] = test system: CD133 aptamer (hybrid RNA-DNA, 10-bp DNA GC stem) (DNA:RNA, aptamer, 2'-fluoro on all pyrimidines (C and U) of the RNA part; 5-methyl-dC (printed 5'-methyl-dC) in the DNA stem) CGCGCGCCGCUCCUACAUAGCGGCGCGCG; assay: ITC; conditions: Mg2+ 2.5 mM, PBS (Na+, K+), 25 °C, DOX 100 µM injected, aptamer 2 µM or 100 µM (supplement)
[5] = 2'-O-methyl instead of 2'-fluoro on pyrimidines (C and U)
[6] = apparent Kd, 2'-fluoro on all pyrimidines, 5-methyl-dC in stem, hexylamine cap at 3' end

CGCGCGCCGCUCCUACAUAGCGGCGCGCG [negative control CD133 aptamer (2'-OMe)]
Kd [1, 5]: > 1000 nM | Kd [2, 5]: > 1000 nM

CGCGCGCCGCUCCUACAUAGCGGCGCGCG [CD133 aptamer (RNA loop, DNA GC stem)]
Kd [1, 6]: 11 nM | Kd [2, 6]: 27 nM

COc1cccc2c1C(=O)c1c(O)c3c(c(O)c1C2=O)C[C@@](O)(C(=O)CO)C[C@@H]3O[C@H]1C[C@H](N)[C@H](O)[C@H](C)O1
binding [3]: yes | KD [4]: 634 nM
